Here are results for twelve proteins from paper PMC5994540.

Series [1] is described as follows: surface/total immunofluorescence, COS-7, with GluN1-4a. The conditions noted are these: glycan lost; control: wild-type GluN1/GluN3A.
Series [2] in a line: surface/total GFP immunofluorescence, hippocampal neuron dendrites. As to conditions: glycan lost; control: wild-type GluN3A.
A short description of series [3]: spine/shaft GFP fluorescence ratio, hippocampal neurons. As to conditions: glycan lost; control: wild-type GluN3A.
Series [4] is described as follows: surface immunofluorescence, GluN1/GluN3A in human CDG patient fibroblasts. As to conditions: glycan lost; control: control fibroblasts.
Series [5] can be described thus: surface biotinylation, endogenous GluN3A, rat hippocampal neurons. As to conditions: control: untreated.
The nature of series [6]: surface immunofluorescence, GluN1/GluN3A in COS-7. The conditions noted are these: control: untreated.
Series [7] can be described thus: surface/total GFP immunofluorescence, GFP-GluN3A in hippocampal neurons. The conditions noted are these: control: untreated.
A short description of series [8]: whole-cell patch clamp, 500 μM glycine, HEK293. The conditions noted are these: glycan lost; control: wild-type GluN1/GluN3A, untreated. In general terms: Patch clamp records ionic current or voltage across a cell membrane.

B1: GluN3A subunit: GluN3A-12N→12Q (protein)
parent chain: MRRLSLWWLLSRVCLLLPPPCALVLAGVPSSSSHPQPCQILKRIGHAVRVGAVHLQPWTTAPRAASRAQEGGRAGAQRDDPESGTWRPPAPSQGARWLGSALHGRGPPGSRKLGEGAGAETLWPRDALLFAVENLNRVEGLLPYNLSLEVVMAIEAGLGDLPLMPFSSPSSPWSSDPFSFLQSVCHTVVVQGVSALLAFPQSQGEMMELDLVSSVLHIPVLSIVRHEFPRESQNPLHLQLSLENSLSSDADVTVSILTMNNWYNFSLLLCQEDWNITDFLLLTENNSKFHLESVINITANLSSTKDLLSFLQVQMDNIRNSTPTMVMFGCDMDSIRQIFEMSTQFGLSPPELHWVLGDSQNVEELRTEGLPLGLIAHGKTTQSVFEYYVQDAMELVARAVATATMIQPELALLPSTMNCMDVKTTNLTSGQYLSRFLANTTFRGLSGSIKVKGSTIISSENNFFIWNLQHDPMGKPMWTRLGSWQGGRIVMDSGIWPEQAQRHKTHFQHPNKLHLRVVTLIEHPFVFTREVDDEGLCPAGQLCLDPMTNDSSMLDRLFSSLHSSNDTVPIKFKKCCYGYCIDLLEQLAEDMNFDFDLYIVGDGKYGAWKNGHWTGLVGDLLSGTANMAVTSFSINTARSQVIDFTSPFFSTSLGILVRTRDTAAPIGAFMWPLHWTMWLGIFVALHITAIFLTLYEWKSPFGMTPKGRNRNKVFSFSSALNVCYALLFGRTAAIKPPKCWTGRFLMNLWAIFCMFCLSTYTANLAAVMVGEKIYEELSGIHDPKLHHPSQGFRFGTVRESSAEDYVRQSFPEMHEYMRRYNVPATPDGVQYLKNDPEKLDAFIMDKALLDYEVSIDADCKLLTVGKPFAIEGYGIGLPPNSPLTSNISELISQYKSHGFMDVLHDKWYKVVPCGKRSFAVTETLQMGIKHFSGLFVLLCIGFGLSILTTIGEHIVHRLLLPRIKNKSKLQYWLHTSQRFHRALNTSFVEEKQPRSKTKRVEKSRWRRWTCKTEGDSELSLFPRSNLGPQQLMVWNTSNLSHDNQRKYIFNDEEGQNQLGTQAHQDIPLPQRRRELPASLTTNGKADSLNVTRSSVIQELSELEKQIQVIRQELQLAVSRKTELEEYQKTNRTCES
Consider B1, for which the localisation_or_trafficking entry in series [1] is “abolishes”; in series [2], “decreases”; in series [3], “decreases”.

B2: GluN3A subunit: GluN3A-2/2N→Q (protein)
parent chain: B1 parent chain
Take B2: the localisation_or_trafficking entry in series [1] and in series [2] was “no change” each time.

B3: GluN3A subunit: DPAGT1-CDG (protein)
parent chain: B1 parent chain
Turning to B3, in series [4], the localisation_or_trafficking result is recorded as “no change”.

B4: GluN3A subunit: swainsonine (protein)
parent chain: B1 parent chain
As to B4, the localisation_or_trafficking entry in series [5] (glycan changed form), in series [6] (glycan changed form) and in series [7] (glycan changed form) was “no change” in each case.

B5: GluN3A subunit: GluN3A-1/2N→Q (protein)
parent chain: B1 parent chain
As to B5, the localisation_or_trafficking entry in series [1] and in series [2] was “decreases” in each case.

B6: GluN3A subunit: DMM (protein)
parent chain: B1 parent chain
Take B6: the localisation_or_trafficking entry in series [5] (glycan changed form), in series [6] (glycan changed form) and in series [7] (glycan changed form) was “no change” each time.

B7: GluN3A subunit: DNJ (protein)
parent chain: B1 parent chain
As to B7, the localisation_or_trafficking entry in series [5] (glycan changed form), in series [6] (glycan changed form) and in series [7] (glycan changed form) was “no change” each time.

B8: GluN3A subunit: tunicamycin (protein)
parent chain: B1 parent chain
Turning to B8, the localisation_or_trafficking result in series [5] (glycan lost), in series [6] (glycan lost) and in series [7] (glycan lost) was “decreases” in each case.

B9: GluN3A subunit: kifunensine (protein)
parent chain: B1 parent chain
As to B9, the localisation_or_trafficking entry in series [5] (glycan changed form), in series [6] (glycan changed form) and in series [7] (glycan changed form) was “no change” throughout.

B10: GluN3A subunit: ALG8-CDG (protein)
parent chain: B1 parent chain
For B10, in series [4], the localisation_or_trafficking entry is “decreases”.

B11: GluN3A subunit: GluN3A-1/4N→Q (protein)
parent chain: B1 parent chain
In the case of B11, the localisation_or_trafficking entry in series [1], in series [2] and in series [3] was “decreases” throughout. Further, the “other: channel desensitisation (τw), other: τw of desensitization” value in series [8] was “no change”.

B12: GluN3A subunit: PNGase F (protein)
parent chain: B1 parent chain
As to B12, the “other: channel desensitisation (τw), other: τw of desensitization” value in series [8] is “no change”.
